# Paper PMC7954794, “Protein context shapes the specificity of SH3 domain-mediated interactions in vivo” (Nature Communications, 2021)
# Test system: Abp1 PPIs
# Assay: DHFR-PCA of Abp1 SH3-swapped baits (Fig. 2B-D, S2C, S2F);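 on Protein-protein interaction distance between Abp1 SH3-swapped baits, to ABP1: Euclidean distance between DHFR-PCA score profiles of the baits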;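 on Protein-protein interaction distance between Abp1 SH3-swapped baits, to BEM1-2: Euclidean distance between DHFR-PCA score profiles of the baits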;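 on Protein-protein interaction distance between Abp1 SH3-swapped baits, to BOI1: Euclidean distance between DHFR-PCA score profiles of the baits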;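 on Protein-protein interaction distance between Abp1 SH3-swapped baits, to BZZ1-1: Euclidean distance between DHFR-PCA score profiles of the baits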
# Type: cell-based, Saccharomyces cerevisiae
# Settings: sheet Fig2C
# Procedure, shortened: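 Yeast DHFR-PCA in which Abp1 baits, carrying their SH3 replaced by CRISPR–Cas9 with one of 27 yeast SH3s or human CTTN, HCLS1 or DBNL SH3s, were mated against 575 SH3-associated DHFR F[3] preys plus 40 negative controls. Four tests were run per PPI. Diploids were selected twice (48 h, 30 °C), then grown 4 days on PCA selection media.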
molecule,measurement,setting,value
"SDC25 (protein, UniProt P0CF34 1-1048, looked up) Putative truncated guanine …: MPITSSPDLFYLNDCDVVYWYDLTRLVCHYVNLTERDLLANEREKFLTSLDLLTAQITYVYMLFRNLRLVEDSFKKTLKKLIYTLSRFSINANIWFHSTLFEEREAIASQKDPERRSPLLQSILGTFQKFHFLLRLLHFLSNPNELTILPQLTPRFFKDSFNTISWNNPFLRKRLNQHMSHDLPRQMIKAVAGASGIVAENIDEIPASKQGTSCSSETSHHSPSAPFQRRRRGTIFSNVSGSSDESDTIWSKRKKPYPLNEETLSLVRARKKQLDGKLKQMIKSANEYLSNTANFSKMLNFEMNFKTYEEVSGTIPIIDILENLDLTIFLNLRELGDENRVFDEDVAIDDEDEEFLKHSLSSLSYILSDYFNMKQYFHDVVVKFIIVAQHLTLEDPFVFSPMQNDLPTGYYEPMKPSSLNLDNAKDKKNGSQNTDIQEEEDEYEPDPDSLILFHNLINQDSDFNDLKFFNLAHVFKKSCDDYFDVLKLAIEFVNQLILERENLLNYAARMMKNNITELLLRGEEGYGSYDGGETAEKSDTNAVYADSDTKDNDEWRDSQVKLPRYLQREYDSELIWGSNNRIKGGSKHALISYLTDNEKKDLFFDITFLITFRSIFTTTEFLSYLISQYNLDPPEDLCFEEYNEWVTKKLIPVKCRVVEIMTTFFKQYWFLGYDEPDLATLNLDYFAQVAIKENITGSVELLKEVNQKFKHGNIQEATAPMKTLDQQICQDHYSGTLYSTTESILAVDPVLFATQLTILEHEIYCEITIFDCLQKIWKNKYTKSYGASPGLNEFISFANKLTNFISYSVVKEADKSKRAKLLSHFIFIAEYCRKFNNFSSMTAIISALYSSPIYRLEKTWQAVIPQTRDLLQSLNKLMDPKKNFINYRNELKSLHSAPCVPFFGVYLSDLTFTDSGNPDYLVLEHGLKGVHDEKKYINFNKRSRLVDILQEIIYFKKTHYDFTKDRTVIECISNSLENIPHIEKQYQLSLIIEPKPRKKVVPNSNSNNKSQEKSRDDQTDEGKTSTKKDRFPKFQLHKTKKKAPKVSK","Protein-protein interaction distance between Abp1 SH3-swapped baits, to ABP1","Abp1 bait with swapped SH3, distance to bait with ABP1 SH3",33.14
same,"Protein-protein interaction distance between Abp1 SH3-swapped baits, to BBC1",distance to Abp1 bait with BBC1 SH3,31.85
same,"Protein-protein interaction distance between Abp1 SH3-swapped baits, to BEM1-1",distance to Abp1 bait with BEM1-1 SH3,25.75
same,"Protein-protein interaction distance between Abp1 SH3-swapped baits, to BEM1-2",distance to Abp1 bait with BEM1-2 SH3,6.672
same,"Protein-protein interaction distance between Abp1 SH3-swapped baits, to BOI1",distance to Abp1 bait with BOI1 SH3,29.16
same,"Protein-protein interaction distance between Abp1 SH3-swapped baits, to BOI2",distance to Abp1 bait with BOI2 SH3,28.39
same,"Protein-protein interaction distance between Abp1 SH3-swapped baits, to BUD14",distance to Abp1 bait with BUD14 SH3,24.65
same,"Protein-protein interaction distance between Abp1 SH3-swapped baits, to BZZ1-1",distance to Abp1 bait with BZZ1-1 SH3,32.5
same,"Protein-protein interaction distance between Abp1 SH3-swapped baits, to BZZ1-2",distance to Abp1 bait with BZZ1-2 SH3,29.97
same,"Protein-protein interaction distance between Abp1 SH3-swapped baits, to CDC25",distance to Abp1 bait with CDC25 SH3,14.8
same,"Protein-protein interaction distance between Abp1 SH3-swapped baits, to CTTN",distance to Abp1 bait with CTTN SH3,27.81
same,"Protein-protein interaction distance between Abp1 SH3-swapped baits, to CYK3",distance to Abp1 bait with CYK3 SH3,15.21
same,"Protein-protein interaction distance between Abp1 SH3-swapped baits, to DBNL",distance to Abp1 bait with DBNL SH3,31.69
same,"Protein-protein interaction distance between Abp1 SH3-swapped baits, to FUS1",distance to Abp1 bait with FUS1 SH3,24.28
same,"Protein-protein interaction distance between Abp1 SH3-swapped baits, to HCLS1",distance to Abp1 bait with HCLS1 SH3,34.87
same,"Protein-protein interaction distance between Abp1 SH3-swapped baits, to HOF1",distance to Abp1 bait with HOF1 SH3,7.905
same,"Protein-protein interaction distance between Abp1 SH3-swapped baits, to HSE1",distance to Abp1 bait with HSE1 SH3,31.59
same,"Protein-protein interaction distance between Abp1 SH3-swapped baits, to LSB1",distance to Abp1 bait with LSB1 SH3,37.12
same,"Protein-protein interaction distance between Abp1 SH3-swapped baits, to LSB3",distance to Abp1 bait with LSB3 SH3,36.63
same,"Protein-protein interaction distance between Abp1 SH3-swapped baits, to MYO3",distance to Abp1 bait with MYO3 SH3,35.91
same,"Protein-protein interaction distance between Abp1 SH3-swapped baits, to MYO5",distance to Abp1 bait with MYO5 SH3,35.29
same,"Protein-protein interaction distance between Abp1 SH3-swapped baits, to NBP2",distance to Abp1 bait with NBP2 SH3,24.44
same,"Protein-protein interaction distance between Abp1 SH3-swapped baits, to PEX13",distance to Abp1 bait with PEX13 SH3,35.86
same,"Protein-protein interaction distance between Abp1 SH3-swapped baits, to PIN3",distance to Abp1 bait with PIN3 SH3,34.35
same,"Protein-protein interaction distance between Abp1 SH3-swapped baits, to RVS167",distance to Abp1 bait with RVS167 SH3,34.37
same,"Protein-protein interaction distance between Abp1 SH3-swapped baits, to SDC25",distance to Abp1 bait with SDC25 SH3,0.00
same,"Protein-protein interaction distance between Abp1 SH3-swapped baits, to SHO1",distance to Abp1 bait with SHO1 SH3,31.28
same,"Protein-protein interaction distance between Abp1 SH3-swapped baits, to SLA1-1",distance to Abp1 bait with SLA1-1 SH3,14.07
same,"Protein-protein interaction distance between Abp1 SH3-swapped baits, to SLA1-2",distance to Abp1 bait with SLA1-2 SH3,23.99
same,"Protein-protein interaction distance between Abp1 SH3-swapped baits, to SLA1-3",distance to Abp1 bait with SLA1-3 SH3,37.49
same,"Protein-protein interaction distance between Abp1 SH3-swapped baits, to YSC84",distance to Abp1 bait with YSC84 SH3,36.86
